Experimental data as given in patent US20140105903A1 (Harvard, published 2014).
One block for each molecule: values may come before it.

Legend:
[1] = molecular target: ANG binding sites on ANG receptor expressing LNCaP cells; assay: radio receptor assay, 125I-ANG on LNCaP cells at 4 C, Scatchard analysis
[2] = molecular target: ANG binding sites on ANG receptor expressing LNCaP cells; assay: radio receptor assay, 125I-ANG on LNCaP cells at 4 C, Scatchard analysis; second site
Angiogenin (human ANG) = molecular target: T1, Angiogenin (human ANG) (human, UniProt P03950 25-147, iodine-125 label in the radio receptor assay; coupled to Sepharose in the affinity chromatography); assay: method not named at this place; Example 4 names ELISA and equilibrium dialysis
T1 construct: also called free ANG
T1 sequence (P03950 25-147 limits assumed): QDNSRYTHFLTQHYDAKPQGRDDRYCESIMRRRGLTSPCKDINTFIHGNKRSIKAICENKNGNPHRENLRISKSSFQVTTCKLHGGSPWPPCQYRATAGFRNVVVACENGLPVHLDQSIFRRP

- Kd [1]: 0.45 nM
- Kd [2]: 170 nM
Molecule: Angiogenin (human ANG) (from UniProt P03950 25-147) (ligand)

- Kd (Angiogenin (human ANG)): 200 nM
B1: Plexin B2 peptide GTSSEYDSILVEINKRVK (SEQ ID NO: 1) (peptide)
peptide: GTSSEYDSILVEINKRVK
notes: Chemically synthesized peptide from the region of Plexin B2 between residues 316 and 449
